Source: paper PMC4509860
Values belong to the substance of their own block, whether it stands above or below them.

Tests used:
Experiment in all cases: fluorescence polarisation
[1] = biological target: FITC-labeled HcaA leader peptide (Bacillus sp. Al Hakam)
[2] = biological target: FITC-labeled StmA leader peptide (Streptomonospora alba)
[3] = biological target: FITC-labeled BalhA1 leader peptide (Bacillus sp. Al Hakam)
[4] = biological target: FITC-labeled CurA leader (Corynebacterium urealyticum DSM 7109)

Substance: HcaF E79A (natural protein)
Kd [1]: 75 nM

Kd [2]: 160 nM
Substance: StmE V12A (natural protein)

Substance: HcaF I80A (natural protein)
Kd [1]: 500 nM

Substance: BalhC E66A (natural protein)
Kd [3]: 60000 nM

Substance: HcaF R73A (natural protein)
Kd [1]: > 10000 nM

Substance: CurC Q21A (natural protein)
Kd [4]: 8000 nM

Substance: CurC E36A (natural protein)
Kd [4]: 3100 nM

Substance: BalhC H38A (natural protein)
Kd [3]: 21000 nM

Substance: CurC I75A (natural protein)
Kd [4]: 66000 nM

Substance: HcaF E76A (natural protein)
Kd [1]: 250 nM

Substance: CurC R68A (natural protein)
Kd [4]: 79000 nM

Substance: BalhC K20A (natural protein)
Kd [3]: 52000 nM

Substance: BalhC D32A (natural protein)
Kd [3]: 21000 nM

Substance: HcaF N72A (natural protein)
Kd [1]: 79 nM

Kd [2]: 410 nM
Substance: StmE N22A (natural protein)

Kd [2]: 28 nM
Substance: StmE Y28A (natural protein)

Kd [2]: 35 nM
Substance: StmE wild-type (natural protein)

Kd [2]: 75 nM
Substance: StmE Q76A (natural protein)

Kd [2]: 2600 nM
Substance: StmE D69A (natural protein)

Substance: CurC Y31A (natural protein)
Kd [4]: > 150000 nM

Substance: BalhC D23A (natural protein)
Kd [3]: 50000 nM

Substance: CurC D18A (natural protein)
Kd [4]: 3300 nM

Substance: CurC E25A (natural protein)
Kd [4]: 4300 nM

Kd [3]: 10000 nM
Substance: BalhC wild-type (natural protein)

Substance: HcaF D38A (natural protein)
Kd [1]: 77 nM

Kd [2]: 35 nM
Substance: StmE D75A (natural protein)

Kd [2]: 38 nM
Substance: StmE D68A (natural protein)
